# Measurements: patent US20250313644A1 (FUTUREGEN BIOPHARMACEUTICAL BEIJING, published 2025)
# Where two headings read alike, the source gives them in different places.
# T1: human TL1A (HuTL1A) (human, UniProt O95150 57-251, limits assumed, biotin-labelled in some assays (site not stated))
# T1 construct: Expressed in EXPI-293 cells and purified by Ni-NTA (His-tag); Described as a trimeric antigen; also called TL1A antigen; WT
# T1 sequence: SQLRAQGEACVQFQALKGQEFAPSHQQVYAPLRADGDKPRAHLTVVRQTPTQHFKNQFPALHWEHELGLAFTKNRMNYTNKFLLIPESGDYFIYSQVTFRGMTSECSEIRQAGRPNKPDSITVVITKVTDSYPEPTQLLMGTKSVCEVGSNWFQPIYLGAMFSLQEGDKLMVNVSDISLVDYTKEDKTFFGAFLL
# T2: HuTL1A mutant E120A (mutant number 4138) (human, UniProt O95150 57-251, limits assumed)
# T2 construct: whole entry named
# T2 chain: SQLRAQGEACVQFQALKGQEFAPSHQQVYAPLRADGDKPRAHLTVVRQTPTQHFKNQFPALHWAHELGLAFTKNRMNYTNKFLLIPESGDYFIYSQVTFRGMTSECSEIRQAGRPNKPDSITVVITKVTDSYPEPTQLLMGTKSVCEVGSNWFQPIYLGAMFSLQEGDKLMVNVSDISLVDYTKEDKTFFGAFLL
# T3: HuTL1A mutant H118A (mutant number 4137) (human, UniProt O95150 57-251, limits assumed)
# T3 construct: whole entry named
# T3 chain: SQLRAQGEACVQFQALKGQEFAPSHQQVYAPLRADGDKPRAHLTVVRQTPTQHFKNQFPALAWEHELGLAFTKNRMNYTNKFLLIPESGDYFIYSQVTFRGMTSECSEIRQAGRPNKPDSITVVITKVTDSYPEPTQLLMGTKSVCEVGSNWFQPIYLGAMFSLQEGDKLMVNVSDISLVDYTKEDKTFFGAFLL
# T4: HuTL1A mutant K240A (mutant number 4136) (human, UniProt O95150 57-251, limits assumed)
# T4 construct: whole entry named
# T4 chain: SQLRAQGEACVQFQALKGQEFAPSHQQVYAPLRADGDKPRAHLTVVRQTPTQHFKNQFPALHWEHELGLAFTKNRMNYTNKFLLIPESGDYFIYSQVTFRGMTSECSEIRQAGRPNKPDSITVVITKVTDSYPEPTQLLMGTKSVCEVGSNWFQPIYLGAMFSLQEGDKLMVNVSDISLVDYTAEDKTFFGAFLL
# T5: HuTL1A mutant S234A (mutant number 4133) (human, UniProt O95150 57-251, limits assumed)
# T5 construct: whole entry named
# T5 chain: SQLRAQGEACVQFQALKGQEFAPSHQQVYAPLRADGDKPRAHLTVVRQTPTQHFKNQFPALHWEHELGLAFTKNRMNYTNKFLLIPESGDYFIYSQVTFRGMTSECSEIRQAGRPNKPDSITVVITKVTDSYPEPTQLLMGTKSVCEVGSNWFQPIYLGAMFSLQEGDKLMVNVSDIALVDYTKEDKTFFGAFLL
# T6: HuTL1A mutant T105A (mutant number 4140) (human, UniProt O95150 57-251, limits assumed)
# T6 construct: whole entry named
# T6 chain: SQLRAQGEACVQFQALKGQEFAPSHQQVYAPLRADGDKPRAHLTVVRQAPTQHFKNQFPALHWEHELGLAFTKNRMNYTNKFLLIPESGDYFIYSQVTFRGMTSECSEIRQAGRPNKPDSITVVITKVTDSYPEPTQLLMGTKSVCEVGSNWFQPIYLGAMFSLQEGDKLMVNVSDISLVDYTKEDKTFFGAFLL
# T7: HuTL1A mutant T239A (mutant number 4135) (human, UniProt O95150 57-251, limits assumed)
# T7 construct: whole entry named
# T7 chain: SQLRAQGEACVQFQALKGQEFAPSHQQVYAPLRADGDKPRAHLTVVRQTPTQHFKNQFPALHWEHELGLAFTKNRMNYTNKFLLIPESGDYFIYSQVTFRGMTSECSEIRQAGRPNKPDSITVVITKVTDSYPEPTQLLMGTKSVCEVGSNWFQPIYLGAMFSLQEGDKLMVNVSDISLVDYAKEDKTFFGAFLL
# T8: HuTL1A mutant V102A (mutant number 4139) (human, UniProt O95150 57-251, limits assumed)
# T8 construct: whole entry named
# T8 chain: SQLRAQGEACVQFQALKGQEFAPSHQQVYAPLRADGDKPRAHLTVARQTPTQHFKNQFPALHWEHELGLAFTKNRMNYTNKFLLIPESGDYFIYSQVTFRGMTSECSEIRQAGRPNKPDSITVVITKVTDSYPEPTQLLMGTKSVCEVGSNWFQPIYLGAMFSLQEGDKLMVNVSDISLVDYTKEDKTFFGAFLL
# T9: HuTL1A mutant Y238A (mutant number 4134) (human, UniProt O95150 57-251, limits assumed)
# T9 construct: whole entry named
# T9 chain: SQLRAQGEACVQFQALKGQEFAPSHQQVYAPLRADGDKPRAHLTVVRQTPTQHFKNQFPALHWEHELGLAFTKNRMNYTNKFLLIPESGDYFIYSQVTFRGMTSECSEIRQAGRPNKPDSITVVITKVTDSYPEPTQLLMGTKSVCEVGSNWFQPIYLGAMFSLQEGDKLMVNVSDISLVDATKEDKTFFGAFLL
# B1: single-arm antibody M701-3973 (antibody, human IgG1, kappa, L234A L235A)
# heavy: ELQLQESGPGLVKPSETLSLTCAVSGVSFSDYHWAWIRQPPGKGLEWIGDINHRGHTNYNPSLKSRVTVSIDTSKNQFSLKLSSVTAADTAVYFCARDFPNFIFDFWGQGTLVTVSSASTKGPSVFPLAPSSKSTSGGTAALGCLVKDYFPEPVTVSWNSGALTSGVHTFPAVLQSSGLYSLSSVVTVPSSSLGTQTYICNVNHKPSNTKVDKKVEPKSCDKTHTCPPCPAPEAAGGPSVFLFPPKPKDTLMISRTPEVTCVVVDVSHEDPEVKFNWYVDGVEVHNAKTKPREEQYNSTYRVVSVLTVLHQDWLNGKEYKCKVSNKALGAPIEKTISKAKGQPREPQVYTLPPCREEMTKNQVSLWCLVKGFYPSDIAVEWESNGQPENNYKTTPPVLDSDGSFFLYSKLTVDKSRWQQGNVFSCSVMHEALHNHYTQKSLSLSPG
# light: not shown
# chain: DKTHTCPPCPAPEAAGGPSVFLFPPKPKDTLMISRTPEVTCVVVDVSHEDPEVKFNWYVDGVEVHNAKTKPREEQYNSTYRVVSVLTVLHQDWLNGKEYKCKVSNKALGAPIEKTISKAKGQPREPQVCTLPPSREEMTKNQVSLSCAVKGFYPSDIAVEWESNGQPENNYKTTPPVLDSDGSFFLVSKLTVDKSRWQQGNVFSCSVMHEALHNHYTQKSLSLSPG
# Key:
# human TL1A (HuTL1A) [1] = target: T1, human TL1A (HuTL1A); test: BLI (Gator) on WT antigen (3907)
# [2] = target: T2, HuTL1A mutant E120A (mutant number 4138); test: BLI (Gator) on antigen mutant E120A
# [3] = target: T3, HuTL1A mutant H118A (mutant number 4137); test: BLI (Gator) on antigen mutant H118A
# [4] = target: T4, HuTL1A mutant K240A (mutant number 4136); test: BLI (Gator) on antigen mutant K240A
# [5] = target: T5, HuTL1A mutant S234A (mutant number 4133); test: BLI (Gator) on antigen mutant S234A
# [6] = target: T6, HuTL1A mutant T105A (mutant number 4140); test: BLI (Gator) on antigen mutant T105A
# [7] = target: T7, HuTL1A mutant T239A (mutant number 4135); test: BLI (Gator) on antigen mutant T239A
# [8] = target: T8, HuTL1A mutant V102A (mutant number 4139); test: BLI (Gator) on antigen mutant V102A
# [9] = target: T9, HuTL1A mutant Y238A (mutant number 4134); test: BLI (Gator) on antigen mutant Y238A
# human TL1A (HuTL1A) [10] = target: T1, human TL1A (HuTL1A); test: BLI (Gator), His-tagged TL1A on anti-His probe, pH 7.4
# Description: (§1) Then a serial dilutions of single-arm M701 antibodies and control antibodies were added.
# [11] = target: T10, cynomolgus monkey/rhesus monkey TL1A (cynomolgus monkey/rhesus monkey); test: as above
# T10 construct: also called Cynomolgus/rhesus monkey TL1A
# Description: as §1
# human TL1A (HuTL1A) [12] = target: T1, human TL1A (HuTL1A); test: BLI (Gator), biotin-HuTL1A on SA probe, pH 7.4; BLI (Gator), pH 7.4
# Description: The binding kinetics between monoclonal antibodies and antigens was measured using Gator, a label-free biomolecule interaction analyzer based on the principle of biolayer interference (BLI). […] Then a serial dilutions of single-arm M701 antibodies and control antibodies were added. The antibodies interacted with the antigen captured by the SA probe, and the interaction was analyzed by detecting the signal change of the reflection interference spectrum of the probe surface, and finally the binding kinetics constants of the antibodies were calculated. The kinetic constants of antigen and antibodies were measured at pH 7.4 and 5.6 in sodium dihydrogen phosphate-citrate buffer.
# human TL1A (HuTL1A) [13] = target: T1, human TL1A (HuTL1A); test: ELISA: biotin-HuTL1A on streptavidin plate, antibody diluted at pH 7.4, HRP-anti-human Fc, OD450
# Description: (§2) Corresponding antibodies were added to specific wells, and the antibodies were diluted with sodium dihydrogen phosphate-citrate buffer at pH 7.4, pH 6.0, pH 5.8, or pH 5.6. Binding assay was carried out at room temperature for 30 minutes. After the incubation, the excess antibodies were removed and the wells were washed by PBST. HRP-anti-Human Fc (Sino Biological) was then added into each well and incubated for 30 minutes to detect the bound antibody. The substrate TMB was finally added to develop color for 5-10 minutes. The color development reaction was terminated with 1M sulfuric acid. OD450 nm was recorded on a microplate reader, and the data were processed and fitted by 4 parameter logistic regression.
# human TL1A (HuTL1A) [14] = target: T1, human TL1A (HuTL1A); test: as above; remark: listed apart in the source
# Description: as §2
binder,measurement,setting,value
B1,Kd,human TL1A (HuTL1A) [1],8.39 nM
same,Kd,[2],17.3 nM
same,Kd,[3],7.73 nM
same,Kd,[4],8.15 nM
same,Kd,[5],7.82 nM
same,Kd,[6],6.65 nM
same,Kd,[7],11.6 nM
same,Kd,[8],5850 nM
same,Kd,[9],12100 nM
same,Kd,human TL1A (HuTL1A) [10],5.92 nM
same,koff,human TL1A (HuTL1A) [10],0.00353 s⁻¹
same,kon,human TL1A (HuTL1A) [10],596000 M⁻¹ s⁻¹
same,Kd,[11],6.09 nM
same,koff,[11],0.00375 s⁻¹
same,kon,[11],616000 M⁻¹ s⁻¹
same,Kd,human TL1A (HuTL1A) [12],5.62 nM
same,koff,human TL1A (HuTL1A) [12],0.00214 s⁻¹
same,kon,human TL1A (HuTL1A) [12],381000 M⁻¹ s⁻¹
same,EC50 (read off the curve),human TL1A (HuTL1A) [13],~0.6 nM
same,EC50 (read off the curve),human TL1A (HuTL1A) [14],~0.6 nM
